Legend:
[1] = AVAglio Phase III trial, safety (adverse events); format: in vivo, human; design: unit not given here
Source text: (§1) A randomized, double blind, placebo controlled multicenter Phase III trial of bevacizumab, temozolomide and radiotherapy, followed by bevacizumab and temozolomide versus placebo, temozolomide and radiotherapy followed by placebo and temozolomide in patients with newly diagnosed glioblastoma (AVAglio)
(§2) The AVAglio trial evaluated the efficacy and safety of bevacizumab in combination temozolomide and radiotherapy for newly diagnosed glioblastoma. This study was designed as a prospective, randomized, double blind, placebo controlled Phase III evaluation of bevacizumab plus chemotherapy versus chemotherapy alone. To be eligible, patients must have newly diagnosed glioblastoma with a tissue diagnosis that has been established following either a surgical resection or biopsy. By adding bevacizumab to chemotherapy and radiotherapy, the AVAglio trial aimed to improve overall survival (OS) and progression-free survival (PFS) for this group of patients who have limited therapeutic options and face a particularly poor prognosis. The primary objective was to compare OS and PFS of patients randomised to temozolomide and radiotherapy only or to temozolomide and radiotherapy plus bevacizumab.
(§3) Study Design—This trial consisted of three phases (Concurrent, Maintenance, and Monotherapy) and two (2) treatment arms: temozolomide and radiotherapy (Arm 1) and temozolomide and radiotherapy plus bevacizumab (Arm 2). Patients were randomly assigned (1:1) to either arm, see FIG. 1.
(§4) Eligible patients received 2 Gy radiotherapy 5 days a week for 6 weeks and 75 mg/m^2 temozolomide (TMZ) orally daily for 6 weeks from the first day to the last day of radiotherapy. After a 4 week treatment break, eligible patients received 6 cycles of 150-200 mg/m^2 TMZ on days 1-5 of a every 4 weeks schedule in combination with 10 mg/kg placebo IV every 2 weeks. TMZ was administered orally starting with a 150 mg/m^2 dose that could be escalated. Placebo monotherapy (15 mg/kg every 3 weeks) was then continued until disease progression.
as §4, with “TMZ” for “temozolomide (TMZ)”, “radiotherapy in combination with 10 mg/kg bevacizumab IV every 2 weeks.” for “radiotherapy.”, “bevacizumab” for “placebo”, “Bevacizumab” for “Placebo”
(§5) The initial bevacizumab infusion was over 90 minutes, with subsequent infusions over 60 minutes and then 30 minutes, as tolerated. Bevacizumab was administered on the day of the last day of radiotherapy and TMZ, i.e., the day before the start of the TMZ treatment break.
Patients≥18 years of age and with newly diagnosed supratentorial Glioblastoma (GBM) with a tissue diagnosis that has been established following either a surgical resection or biopsy. […] Patients must have WHO performance status≤2.
Eligible patients had newly diagnosed glioblastoma (WHO performance status≤2). After surgical resection, patients were randomized to concurrent therapy with temozolomide with radiation and placebo or temozolomide with radiation and bevacizumab followed by a 28 day treatment break, maintenance therapy with 10 mg/kg bevacizumab or placebo administered every two weeks in combination with temozolomide, and monotherapy with 15 mg/kg bevacizumab or placebo was administered every three weeks until disease progression or unacceptable toxicity. Patients in the placebo arm were treated at the investigators discretion at progression.

[2] = system: newly diagnosed glioblastoma; test: AVAglio Phase III trial, efficacy (PFS, ORR, pseudoprogression, steroid discontinuation); format: in vivo, human
Source text: as §1, §2, §3, §4
as §4, with “TMZ” for “temozolomide (TMZ)”, “radiotherapy in combination with 10 mg/kg bevacizumab IV every 2 weeks.” for “radiotherapy.”, “bevacizumab” for “placebo”, “Bevacizumab” for “Placebo”
as §5
Analyses of PFS was based on tumor assessments MacDonald Response Criteria (modified WHO criteria) using MRI of the brain and a neurological evaluation as described in Macdonald et al., Response criteria for phase II studies of supratentorial malignant glioma. J Clin Oncol 1990; 8:1277-80.
Tumor assessments were performed at baseline, at the end of the 4 week treatment break, then then every 8 weeks.
Patients≥18 years of age and with newly diagnosed supratentorial Glioblastoma (GBM) with a tissue diagnosis that has been established following either a surgical resection or biopsy. This includes treatment-naïve—(chemotherapy and radiotherapy)—patients with prior diagnosis of a lower grade astrocytoma that has been upgraded to a histologically verified GBM. Patients must have WHO performance status≤2.
Eligible patients had newly diagnosed glioblastoma (WHO performance status≤2). […]

**Q.** With “bevacizumab + RT + T: Arm 2 of AVAglio: bevacizumab (recombinant humanized anti-VEGF monoclonal antibody) with temozolomide and radiotherapy” as the substance, how does the “Thromboembolic event Arterial (all grade)” value [1] read?
**A.** 5

**Q.** What about the “Thromboembolic event Venous (Grade ≥3)” value [1] of the same substance?
**A.** 7.3

**Q.** And the “CHF (grade ≥3)” value ([1]; adverse event)?
**A.** 0.4

**Q.** And the “Fistula/abscess (all grade)” value ([1]; adverse event)?
**A.** 0.6

**Q.** And the “Hypertension (Grade ≥3)” value ([1]; adverse event)?
**A.** 10.3

**Q.** And the “PRES (Posterior reversible encephalopathy syndrome) (all grade)” value ([1]; adverse event)?
**A.** 0

**Q.** And the “Proteinuria (Grade ≥3)” value ([1]; adverse event)?
**A.** 3.7

**Q.** What about the “Bleeding (Grade ≥3) Cerebral Hemorrhage” value ([1]; adverse event, Grade ≥3) of the same substance?
**A.** 1.5

**Q.** And the “Bleeding (Grade ≥3) Mucocutaneous bleeding” value ([1]; adverse event, Grade ≥3)?
**A.** 0.4

**Q.** And the “Bleeding (Grade ≥3) Other” value ([1]; adverse event, Grade ≥3)?
**A.** 0.6

**Q.** What about the “Bleeding (all grade) Cerebral Hemorrhage” value ([1]; adverse event, all grade) of the same substance?
**A.** 2.6

**Q.** What about the “Bleeding (all grade) Mucocutaneous bleeding” value ([1]; adverse event, all grade) of the same substance?
**A.** 26.7

**Q.** And the “Bleeding (all grade) Other” value ([1]; adverse event, all grade)?
**A.** 11.6

**Q.** What about the “Best ORR: Difference, % (95% CI)” value ([2]; Bv + T/RT versus P + T/RT, p =< 0.001) of the same substance?
**A.** 20.4 (13.9-26.8) %

**Q.** And the “Events, %” value ([2]; PFS events, percent of patients)?
**A.** 77.3%

**Q.** What about the “HR (95% CI)” value ([2]; PFS hazard ratio, bevacizumab + RT + T versus placebo + RT + T, log-rank p < 0.0001) of the same substance?
**A.** 0.64 (0.55-0.74)

**Q.** And the “effect on ORR (in words)” value ([2]; addition to first line temozolomide plus radiotherapy)?
**A.** significantly improves ORR

**Q.** And the “Potential PsPD, %” value ([2]; end of treatment break)?
**A.** 2.6%

**Q.** And the “PFS (months)” value ([2]; median progression-free survival, MacDonald Response Criteria, patients with newly diagnosed glioblastoma)?
**A.** 10.6 months

**Q.** What about the “Best ORR: % (95% CI)” value ([2]; objective response rate) of the same substance?
**A.** 38.4 (33.5-43.5) %

**Q.** What about the “patients on steroids at baseline able to discontinue steroids for part of their progression-free survival interval” value ([2]; patients on steroids at baseline) of the same substance?
**A.** 66%

**Q.** What about the “Confirmed PsPD, %” value ([2]; post-2nd maintenance cycle) of the same substance?
**A.** 2.2%

**Q.** What about the “Rejected PsPD, %” value ([2]; post-2nd maintenance cycle) of the same substance?
**A.** 0.2%

**Q.** And the “improvement in PFS (in words)” value ([2]; versus chemotherapy in combination with radiotherapy)?
**A.** statistically significant and clinically meaningful improvement in PFS
